From PMC4317691, “Stability of glucagon-like peptide 1 and glucagon in human plasma” (Endocrine Connections, 2015)

Assays:
[1] = Protocol: The aliquots (N=6–8) of spiked plasma were then: i) immediately extracted with ethanol (final concentration 70%, for this treatment we used N=21); ii) subjected to one freeze–thaw cycle (placed at −20 °C for ∼1 h followed by thawing in an ice bath) and extracted (using 70% ethanol, final concentration) immediately upon thawing; iii) subjected to two freeze–thaw cycles and extracted immediately upon second thawing; iv) subjected to three freeze–thaw cycles and extracted immediately upon third thawing; v) kept on ice for 1 h and extracted immediately after; vi) kept on ice for 3 h and extracted immediately after; vii) kept without ice for 1 h at RT and extracted immediately after; viii) kept without ice for 3 h and extracted immediately after.
Later, an additional plasma pool was prepared of fresh plasma from some (n=5) of the healthy subjects contributing to the first pool, spiked with glucagon (0 and 40 pmol/l, final concentration), and aliquoted. Thereafter, the valiquots were kept on ice for up to 24 h. These aliquots (N=6–8 for each time point) were extracted after 1, 3, 6, 12, and 24 h, respectively, measured (see below) and compared with a set of aliquots extracted immediately after spiking with peptide. […] After extraction, peptide concentrations were analyzed using the assays described below. […]

[2] = remark: listed apart in the source
Protocol: From each of the original spiked plasma portions, eight to ten aliquots were distributed into low-adsorption Nunc tubes (VWR-Bie&Berntsen A/S, Herlev, Denmark). One set of samples (N=8–10) was extracted and analyzed immediately to serve as controls. The remaining eight sets were divided into two and stored at −20 °C or −80 °C. Samples (N=8–10) from each set were analyzed after 1, 3, 6, and 12 months of storage. In addition, seven portions of the new plasma pool as well as assay buffer (to which was added 6% human serum albumin (HSA) to mimick plasma), spiked with 0 and 40 pmol/l of glucagon (N=5 for each set of spiked samples), were assayed (plasma after extraction) after freezing (at −20 °C) for 0 (i.e., they were measured immediately without freezing), 1, 3, 6, 12, 24, and 72 h of storage at −20 °C.
The recovery in percent was calculated as the measured concentration in the individual, spiked plasma sample minus the concentration in the corresponding non-spiked plasma sample divided by the theoretical spiked concentration of peptide and multiplied by 100. For the presentation of data, we normalized the recovery after each treatment by adjusting for the recovery of the samples extracted immediately, set as 100% (Table 1). Differences between treatments were analyzed by one-way ANOVA for repeated measurement with post hoc Bonferroni correction. […]

[3] = Stability of glucagon in frozen assay buffer with 6% HSA; assay type: physicochemical; settings: 40 pmol/l, -20 °C for up to 72 h
[4] = human plasma, no ice
Protocol: GLP-1 and glucagon (0 and 40 pmol/l) were added to the portions, whereafter they were stored at either room temperature or on ice for 1 h and measured (as described below plasma samples after extraction and buffer samples directly).

| Molecule | Glucagon recovery at RT for 3 h, N-terminal-specific assay [1] | Glucagon stability at RT for 1 h [1] | Loss of glucagon recovery after 1 month of frozen storage [2] | Recovery of glucagon in buffer after freezing [3] | Recovery of intact GLP-1 on addition of a DPP4 inhibitor [4] |
| --- | --- | --- | --- | --- | --- |
| glucagon 1–29 | significant (P=0.02) reduction | relatively stable | about 50% | unaffected | – |
| CC[C@H](C)[C@H](NC(=O)[C@H](Cc1ccccc1)NC(=O)[C@H](CCC(=O)O)NC(=O)[C@H](CCCCN)NC(=O)[C@H](C)NC(=O)[C@H](C)NC(=O)[C@H](CCC(N)=O)NC(=O)CNC(=O)[C@H](CCC(=O)O)NC(=O)[C@H](CC(C)C)NC(=O)[C@H](Cc1ccc(O)cc1)NC(=O)[C@H](CO)NC(=O)[C@H](CO)NC(=O)[C@@H](NC(=O)[C@H](CC(=O)O)NC(=O)[C@H](CO)NC(=O)[C@@H](NC(=O)[C@H](Cc1ccccc1)NC(=O)[C@@H](NC(=O)CNC(=O)[C@H](CCC(=O)O)NC(=O)[C@H](C)NC(=O)[C@@H](N)Cc1c[nH]cn1)[C@@H](C)O)[C@@H](C)O)C(C)C)C(=O)N[C@@H](C)C(=O)N[C@@H](Cc1c[nH]c2ccccc12)C(=O)N[C@@H](CC(C)C)C(=O)N[C@H](C(=O)N[C@@H](CCCCN)C(=O)NCC(=O)N[C@@H](CCCNC(=N)N)C(N)=O)C(C)C [GLP-1 7–36NH2] | – | – | – | – | increased |
